Source: the supplement of paper PMC7877785
± gives the uncertainty stated by the source.

Test: self-splicing fitness, log relative to wild type (ln ratio); higher = more splicing; Tetrahymena group I intron in knt gene, E. coli kanamycin selection, DiMSum; sequences stand for … in CUCUCU…GGAGGGAAAAGUUAUCAGGCAUGCACCUGGUAGCUAGUCUUUAAACCAAUAGAUUGCAUCGGUUUAAAAGGCAAGACCGUCAAAUUGCGGGAAAGGGGUCAACAGCCGUUCAGUACCAAGUCUCAGGGGAAACUUUGAGAUGGCCUUGCAAAGGGUAUGGUAAUAAGCUGACGGACAUGGUCCUAACCACGCAGCCAAGUCCUAAGUCAACAGAUCUUCUGUUGAUAUGGAUGCAGUUCACAGACUAAAUGUCGGUCGGGGAAGAUGUAUUCUUCUCAUAAGAUAUAGUCGGACCUCUCCUUAAUGGGAGCUAGCGGAUGAAGUGAUGCAACACUGGAGCCGCUGGGAACUAAUUUGUAUGCGAAAGUAUAUUGAUUAGUUUUGGAGUACUCGUGGUCG
Procedure, shortened: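 A randomised library covering all eight P1ex-region intron nucleotides was built with the intron in the knt kanamycin-resistance gene on pET-22b(+) and held in E. coli BL21(DE3). Cells were grown overnight at 37°C or 30°C on LB agar, with or without 25 μg/mL kanamycin, plus 100 μg/mL carbenicillin, 50 μM IPTG and 0.2% rhamnose, and pooled colonies were amplicon-sequenced on an Illumina HiSeq 2500. DiMSum fitness is the error-weighted combination of wild-type-normalised replicate fold changes, kanamycin versus none.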

Sequence	self-splicing fitness (ln) (30 °C)	self-splicing fitness (ln) (37 °C)
AGGGAGCAAUAUUACGGCUC	-2.18 ± 0.24	–
AUUAAGCAAUAUUACGCACA	-0.525 ± 0.12	-0.202 ± 0.13
UCUGAGCAAUAUUACGUAGU	-2.3 ± 0.11	-0.756 ± 0.13
GCACAGCAAUAUUACGAGGG	-1.9 ± 0.091	-1.14 ± 0.14
AGUAAGCAAUAUUACGUCAA	-3.78 ± 0.21	-2 ± 0.15
CUCCAGCAAUAUUACGGUAU	-4.21 ± 0.22	-3.58 ± 0.19
UGGCAGCAAUAUUACGAUUC	–	-1.46 ± 0.32
UUGCAGCAAUAUUACGAGGA	-2.08 ± 0.18	-0.954 ± 0.14
AUCCAGCAAUAUUACGGCAG	-1.78 ± 0.085	-0.158 ± 0.097
UAGGAGCAAUAUUACGGCGU	-3.14 ± 0.24	-1.43 ± 0.28
UAGCAGCAAUAUUACGCGCU	-2.62 ± 0.12	-1.6 ± 0.12
GCCAAGCAAUAUUACGGGUG	-0.544 ± 0.049	-0.591 ± 0.057
CGACAGCAAUAUUACGAUGC	-3.57 ± 0.17	-1.92 ± 0.18
CAAAAGCAAUAUUACGGUGG	-1.13 ± 0.052	-0.335 ± 0.073
GUCUAGCAAUAUUACGUGUA	-0.862 ± 0.084	-0.516 ± 0.086
AGGAAGCAAUAUUACGGGAU	-2.75 ± 0.19	-2.06 ± 0.18
AAGUAGCAAUAUUACGGCGA	-0.41 ± 0.11	-0.0374 ± 0.11
GGAAAGCAAUAUUACGGGAU	-2.64 ± 0.17	-1.1 ± 0.14
AGGCAGCAAUAUUACGAGGA	-3.31 ± 0.28	-2.55 ± 0.26

Sequence	self-splicing fitness (ln) (30 °C)	self-splicing fitness (ln) (37 °C)
AAAAAGCAAUAUUACGCGUU	-2.73 ± 0.11	-1.44 ± 0.11
CUGUAGCAAUAUUACGGACC	-2.03 ± 0.47	–
CGAGAGCAAUAUUACGACUA	-2.56 ± 0.46	–
GAGUAGCAAUAUUACGUACA	-0.962 ± 0.2	-0.303 ± 0.18
UUAAAGCAAUAUUACGAUCG	0.538 ± 0.098	0.338 ± 0.13
ACGAAGCAAUAUUACGUACC	-1.3 ± 0.14	-1.17 ± 0.19
CUCCAGCAAUAUUACGGCUC	-2.78 ± 0.23	-1.57 ± 0.17
UAUGAGCAAUAUUACGUUAU	-3.87 ± 0.33	-2.46 ± 0.19
AAUCAGCAAUAUUACGGGGG	-1.11 ± 0.1	-1.66 ± 0.13
CGAAAGCAAUAUUACGCGUA	-2.68 ± 0.19	-1.95 ± 0.18
CACGAGCAAUAUUACGCUAA	-2.95 ± 0.34	-2.75 ± 0.22
ACUCAGCAAUAUUACGGCGA	-1.41 ± 0.1	-0.93 ± 0.12
GCCAAGCAAUAUUACGAUAA	-3.09 ± 0.17	-1.6 ± 0.2
GUCGAGCAAUAUUACGGCGC	-0.811 ± 0.25	-0.631 ± 0.44
CUCAAGCAAUAUUACGCUAU	-3.05 ± 0.18	-2.17 ± 0.16
GCCCAGCAAUAUUACGUGAA	-0.204 ± 0.053	0.177 ± 0.077
GGCCAGCAAUAUUACGCAGU	-1.37 ± 0.12	-1.86 ± 0.19
GCCAAGCAAUAUUACGCGAC	-2.35 ± 0.11	-0.858 ± 0.1
UCACAGCAAUAUUACGGCUU	-3.43 ± 0.22	-1.85 ± 0.17
